Measurements published in patent publication US20250250343A1 (UNITY BIOTECHNOLOGY, published 2025).
Read-outs that look alike come from different tables or passages of the source.

B1: #2 (bispecific antibody, human IgG1, kappa, L234A L235A)
heavy chain: DVQLVESGGGVVRPGESLRLSCTASGFTFDSYGMSWVRQAPGKGLEWVSSINVGDNTYYADSVRGRFIISRDSSRNTLYLQMNSLTAEDTAVYYCANWNSFFDYWGLGTLVTVSSASTKGPSVFPLAPSSKSTSGGTAALGCLVKDYFPEPVTVSWNSGALTSGVHTFPAVLQSSGLYSLSSVVTVPSSSLGTQTYICNVNHKPSNTKVDKKVEPKSCDKTHTCPPCPAPEAAGGPSVFLFPPKPKDTLMISRTPEVTCVVVDVSHEDPEVKFNWYVDGVEVHNAKTKPREEQYNSTYRVVSVLTVLHQDWLNGKEYKCKVSNKALGAPIEKTISKAKGQPREPQVYTLPPSREEMTKNQVSLTCLVKGFYPSDIAVEWESNGQPENNYKTTPPVLDSDGSFFLYSKLTVDKSRWQQGNVFSCSVMHEALHNHYTQKSLSLSPGKGGGGSGGGGSDIQMTQSPSSLSASVGDRVTITCRASQVIRRSLAWYQQKPGKAPKLLIYAASNLASGVPSRFSGSGSGTDFTLTISSLQPEDFATYYCQQSNTSPLTFGQGTKVEIKGQSSRSSGGGGSSGGGGSEVQLVESGGGLVQPGGSLRLSCAASGFSINGSWIFWVRQAPGKGLEWVGAIWPFGGYTHYADSVKGRFTISADTSKNTAYLQMNSLRAEDTAVYYCARWGHSTSPWAMDYWGQGTLVTVSS
light chain (kappa): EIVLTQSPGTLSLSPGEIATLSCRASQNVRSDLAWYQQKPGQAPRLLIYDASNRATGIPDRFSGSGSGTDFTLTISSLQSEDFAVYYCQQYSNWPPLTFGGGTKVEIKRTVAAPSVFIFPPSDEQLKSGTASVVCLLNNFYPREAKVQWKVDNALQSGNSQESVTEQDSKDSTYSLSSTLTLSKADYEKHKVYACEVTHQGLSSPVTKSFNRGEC
B2: Construct #3 (bispecific antibody, human IgG1, kappa, L234A L235A)
heavy: DVQLVESGGGVVRPGESLRLSCTASGFTFDSYGMSWVRQAPGKGLEWVSSINVGDNTYYADSVRGRFIISRDSSRNTLYLQMNSLTAEDTAVYYCANWNSFFDYWGLGTLVTVSSASTKGPSVFPLAPSSKSTSGGTAALGCLVKDYFPEPVTVSWNSGALTSGVHTFPAVLQSSGLYSLSSVVTVPSSSLGTQTYICNVNHKPSNTKVDKKVEPKSCDKTHTCPPCPAPEAAGGPSVFLFPPKPKDTLMISRTPEVTCVVVDVSHEDPEVKFNWYVDGVEVHNAKTKPREEQYNSTYRVVSVLTVLHQDWLNGKEYKCKVSNKALGAPIEKTISKAKGQPREPQVYTLPPSREEMTKNQVSLTCLVKGFYPSDIAVEWESNGQPENNYKTTPPVLDSDGSFFLYSKLTVDKSRWQQGNVFSCSVMHEALHNHYTQKSLSLSPGKGGGGSGGGGSGGGGSSDTGRPFVEMYSEIPEIIHMTEGRELVIPCRVTSPNITVTLKKFPLDTLIPDGKRIIWDSRKGFIISNATYKEIGLLTCEATVNGHLYKTNYLTHRQTNTIIDVVLSPSHGIELSVGEKLVLNCTARTELNVGIDFNWEYPSSKHQHKKLVNRDLKTQSGSEMKKFLSTLTIDGVTRSDQGLYTCAASSGLMTKKNSTFVRVHEK
light: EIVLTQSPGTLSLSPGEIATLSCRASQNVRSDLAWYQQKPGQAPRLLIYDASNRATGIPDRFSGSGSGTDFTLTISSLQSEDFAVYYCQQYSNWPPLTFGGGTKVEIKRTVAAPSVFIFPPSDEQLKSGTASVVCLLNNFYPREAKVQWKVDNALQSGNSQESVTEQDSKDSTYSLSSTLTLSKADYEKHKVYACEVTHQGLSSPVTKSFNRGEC
B3: #11 (bispecific antibody, human IgG1, kappa, L234A L235A)
heavy chain: DVQLVESGGGVVRPGESLRLSCTASGFTFDSYGMSWVRQAPGKGLEWVSSINVGDNTYYADSVRGRFIISRDSSRNTLYLQMNSLTAEDTAVYYCANWNSFFDYWGLGTLVTVSSASTKGPSVFPLAPSSKSTSGGTAALGCLVKDYFPEPVTVSWNSGALTSGVHTFPAVLQSSGLYSLSSVVTVPSSSLGTQTYICNVNHKPSNTKVDKKVEPKSCDKTHTCPPCPAPEAAGGPSVFLFPPKPKDTLMASRTPEVTCVVVDVSHEDPEVKFNWYVDGVEVHNAKTKPREEQYNSTYRVVSVLTVLAQDWLNGKEYKCKVSNKALGAPIEKTISKAKGQPREPQVYTLPPSREEMTKNQVSLTCLVKGFYPSDIAVEWESNGQPENNYKTTPPVLDSDGSFFLYSKLTVDKSRWQQGNVFSCSVMHEALHNAYTQKSLSLSPGKGGGGSGGGGSDIQLTQSPSSLSASVGDRVTITCSASQDISNYLNWYQQKPGKAPKVLIYFTSSLHSGVPSRFSGSGSGTDFTLTISSLQPEDFATYYCQQYSTVPWTFGQGTKVEIKGQSSRSSGGGGSSGGGGSEVQLVESGGGLVQPGGSLRLSCAASGYDFTHYGMNWVRQAPGKGLEWVGWINTYTGEPTYAADFKRRFTFSLDTSKSTAYLQMNSLRAEDTAVYYCAKYPYYYGTSHWYFDVWGQGTLVTVSS
light chain (kappa): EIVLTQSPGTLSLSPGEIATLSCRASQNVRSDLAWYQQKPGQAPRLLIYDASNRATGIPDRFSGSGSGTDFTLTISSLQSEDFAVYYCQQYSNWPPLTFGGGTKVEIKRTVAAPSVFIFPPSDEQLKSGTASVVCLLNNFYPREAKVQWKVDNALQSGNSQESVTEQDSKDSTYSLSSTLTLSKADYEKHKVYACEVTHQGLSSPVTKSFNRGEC
B4: Construct #1 (bispecific antibody, human IgG1, kappa, L234A L235A)
heavy: DVQLVESGGGVVRPGESLRLSCTASGFTFDSYGMSWVRQAPGKGLEWVSSINVGDNTYYADSVRGRFIISRDSSRNTLYLQMNSLTAEDTAVYYCANWNSFFDYWGLGTLVTVSSASTKGPSVFPLAPSSKSTSGGTAALGCLVKDYFPEPVTVSWNSGALTSGVHTFPAVLQSSGLYSLSSVVTVPSSSLGTQTYICNVNHKPSNTKVDKKVEPKSCDKTHTCPPCPAPEAAGGPSVFLFPPKPKDTLMISRTPEVTCVVVDVSHEDPEVKFNWYVDGVEVHNAKTKPREEQYNSTYRVVSVLTVLHQDWLNGKEYKCKVSNKALGAPIEKTISKAKGQPREPQVYTLPPSREEMTKNQVSLTCLVKGFYPSDIAVEWESNGQPENNYKTTPPVLDSDGSFFLYSKLTVDKSRWQQGNVFSCSVMHEALHNHYTQKSLSLSPGKSDTGRPFVEMYSEIPEIIHMTEGRELVIPCRVTSPNITVTLKKFPLDTLIPDGKRIIWDSRKGFIISNATYKEIGLLTCEATVNGHLYKTNYLTHRQTNTIIDVVLSPSHGIELSVGEKLVLNCTARTELNVGIDFNWEYPSSKHQHKKLVNRDLKTQSGSEMKKFLSTLTIDGVTRSDQGLYTCAASSGLMTKKNSTFVRVHEK
light: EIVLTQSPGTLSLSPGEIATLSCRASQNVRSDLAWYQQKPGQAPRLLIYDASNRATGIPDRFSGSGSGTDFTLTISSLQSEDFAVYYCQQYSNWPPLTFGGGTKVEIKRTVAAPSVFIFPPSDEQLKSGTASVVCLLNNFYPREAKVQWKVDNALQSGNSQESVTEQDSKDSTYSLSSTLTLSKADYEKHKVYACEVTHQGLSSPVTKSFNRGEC
B5: #13 (bispecific antibody, human IgG1, kappa, L234A L235A)
heavy chain: DVQLVESGGGVVRPGESLRLSCTASGFTFDSYGMSWVRQAPGKGLEWVSSINVGDNTYYADSVRGRFIISRDSSRNTLYLQMNSLTAEDTAVYYCANWNSFFDYWGLGTLVTVSSASTKGPSVFPLAPSSKSTSGGTAALGCLVKDYFPEPVTVSWNSGALTSGVHTFPAVLQSSGLYSLSSVVTVPSSSLGTQTYICNVNHKPSNTKVDKKVEPKSCDKTHTCPPCPAPEAAGGPSVFLFPPKPKDTLMISRTPEVTCVVVDVSHEDPEVKFNWYVDGVEVHNAKTKPREEQYNSTYRVVSVLTVLHQDWLNGKEYKCKVSNKALGAPIEKTISKAKGQPREPQVYTLPPSREEMTKNQVSLTCLVKGFYPSDIAVEWESNGQPENNYKTTPPVLDSDGSFFLYSKLTVDKSRWQQGNVFSCSVMHEALHNHYTQKSLSLSPGKKEHVRVFTSNKKTMLGSSAACTYLGQDSRTVGDITLTSLFKKMESGSQTKLDRNVLKKHQHKSSPYEWNFDIGVNLETRATCNLVLKEGVSLEIGHSPSLVVDIITNTQRHTLYNTKYLHGNVTAECTLLGIEKYTANSIIFGKRSDWIIRKGDPILTDLPFKKLTVTINPSTVRCPIVLERGETMHIIEPIESYMEVFPRGTDS
light chain (kappa): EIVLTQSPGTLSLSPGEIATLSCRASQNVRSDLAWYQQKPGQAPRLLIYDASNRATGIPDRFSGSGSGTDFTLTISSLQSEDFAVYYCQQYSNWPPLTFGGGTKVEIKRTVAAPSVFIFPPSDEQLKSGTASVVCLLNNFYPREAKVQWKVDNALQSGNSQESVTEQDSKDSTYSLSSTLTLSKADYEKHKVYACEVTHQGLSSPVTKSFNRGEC

What was measured:
Assay in all cases: cell-based or functional assay
[1] = target: T1, human Tie2 (human, UniProt Q02763 23-1124)
[2] = target: T2, VEGF (human, UniProt P15692-4)
[3] = target: T2, VEGF; remark: listed apart in the source
[4] = target: T1, human Tie2; remark: listed apart in the source
[5] = target: T2, VEGF; remark: listed apart in the source
[6] = target: T1, human Tie2; remark: listed apart in the source
[7] = target: T1, human Tie2; remark: listed apart in the source
[8] = target: T1, human Tie2; remark: listed apart in the source
[9] = target: T2, VEGF; remark: listed apart in the source
[10] = target: T1, human Tie2; remark: listed apart in the source
[11] = target: T1, human Tie2; remark: listed apart in the source
[12] = target: T1, human Tie2; remark: listed apart in the source

T1 sequence (Q02763 23-1124): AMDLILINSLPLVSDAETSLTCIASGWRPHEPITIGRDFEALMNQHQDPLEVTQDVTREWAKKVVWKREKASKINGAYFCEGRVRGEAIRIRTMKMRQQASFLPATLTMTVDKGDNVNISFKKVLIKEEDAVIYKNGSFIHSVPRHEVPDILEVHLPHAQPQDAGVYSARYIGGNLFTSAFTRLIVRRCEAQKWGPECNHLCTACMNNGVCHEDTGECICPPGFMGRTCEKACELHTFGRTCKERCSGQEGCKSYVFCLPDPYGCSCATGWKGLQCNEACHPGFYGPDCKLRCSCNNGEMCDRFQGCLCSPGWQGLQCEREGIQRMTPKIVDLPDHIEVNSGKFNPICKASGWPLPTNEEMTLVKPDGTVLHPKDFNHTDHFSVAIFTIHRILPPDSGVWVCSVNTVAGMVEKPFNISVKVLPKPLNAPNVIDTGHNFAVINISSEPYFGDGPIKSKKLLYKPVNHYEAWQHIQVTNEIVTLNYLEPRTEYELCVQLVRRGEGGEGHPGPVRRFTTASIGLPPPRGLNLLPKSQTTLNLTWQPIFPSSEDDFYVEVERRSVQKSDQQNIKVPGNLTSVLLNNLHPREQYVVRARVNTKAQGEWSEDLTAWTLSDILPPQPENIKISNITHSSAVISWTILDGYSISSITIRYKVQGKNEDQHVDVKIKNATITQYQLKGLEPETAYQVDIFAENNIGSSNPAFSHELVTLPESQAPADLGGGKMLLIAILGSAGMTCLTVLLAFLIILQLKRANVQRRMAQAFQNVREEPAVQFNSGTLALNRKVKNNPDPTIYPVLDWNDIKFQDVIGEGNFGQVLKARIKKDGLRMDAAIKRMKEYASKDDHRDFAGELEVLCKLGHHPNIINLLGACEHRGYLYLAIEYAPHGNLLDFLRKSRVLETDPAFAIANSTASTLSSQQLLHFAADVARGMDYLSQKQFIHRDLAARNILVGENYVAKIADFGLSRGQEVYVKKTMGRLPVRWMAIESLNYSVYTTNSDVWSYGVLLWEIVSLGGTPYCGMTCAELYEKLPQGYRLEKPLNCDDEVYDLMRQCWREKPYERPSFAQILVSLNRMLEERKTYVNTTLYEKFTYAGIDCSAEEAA
T2 sequence (P15692 other isoform, or with tags, fused parts or gaps limits assumed): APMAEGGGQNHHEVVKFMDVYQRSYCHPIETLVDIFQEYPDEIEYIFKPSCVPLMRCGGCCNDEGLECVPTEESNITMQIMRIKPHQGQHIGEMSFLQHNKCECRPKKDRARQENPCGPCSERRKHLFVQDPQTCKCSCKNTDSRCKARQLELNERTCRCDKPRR

| Binder | EC50, VEGF neutralisation, KDR/NFAT-RE HEK293 luciferase reporter (the sheet's head prints no unit, EC50 in nM per legend paragraph 17) [2] | EC50, pTie2 in HUVEC (in vitro potency) [4] | EC50, VEGF neutralisation, KDR/NFAT-RE HEK293 luciferase reporter [5] | EC50, pTie2 in HUVEC, W/ VEGF (panels A-C print 'W/ VEGF 50nM'; paragraph 153 says 20 nM) [Panel D] [6] | EC50, pTie2 in HUVEC, W/O VEGF [Panel D] [6] | EC50, pAkt in HUVEC (MSD ELISA) [Panel B] [7] | EC50, pTIE2 in HUVEC [Panel C] [8] | EC50, VEGF inhibition, KDR/NFAT-RE HEK293 luciferase reporter [Panel C] [9] | also measured |
| --- | --- | --- | --- | --- | --- | --- | --- | --- | --- |
| B1 | 0.9 nM |  |  |  |  |  |  |  | EC50, pTie2 in HUVEC (in vitro potency; the sheet's head prints no unit, EC50 in nM per legend paragraph 17) [1]: 2.1 nM; IC50 (read off the curve); % VEGF activity, KDR/NFAT-RE HEK293 luciferase reporter [Panel A] [3]: ~1 nM |
| B2 |  | 3.55 nM | 0.245 nM | 0.87 nM | 2.24 nM | 0.87 nM | 2.42 nM | 0.31 nM |  |
| B3 | 0.107 nM |  |  |  |  |  |  |  |  |
| B4 |  | 4.2 nM | 1.3 nM | 0.39 nM | 1.33 nM | 1.33 nM | 3.56 nM | 1.6 nM | phosphorylated Akt potency in HUVEC cells, against Construct #5 [10]: ~5 fold; EC50, pAkt in HUVEC (MSD ELISA) [Panel B] [11]: 0.909 nM; EC50, pTie2 in HUVEC, W/ VEGF (20 nM VEGF-165 per paragraph 153) [Panel E] [12]: 0.39 nM; EC50, pTie2 in HUVEC, W/O VEGF [Panel E] [12]: 1.33 nM |
| B5 |  |  | 0.854 nM |  |  |  |  |  |  |
